Experimental data taken from patent US20250304681A1 (BEIJING ECHO BIOTECH, published 2025).
One block for each binder: values may come before it.

Key:
Human-RAGE-ECD-Fc(IgG1) = molecular target: T1, Human-RAGE-ECD-Fc(IgG1) (human); assay: ELISA, antigen coated at 2 ug/mL, anti-human kappa+lambda-HRP
T1 construct: also called P38406

Cyno-RAGE-ECD-Fc(IgG1) = molecular target: T2, Cyno-RAGE-ECD-Fc(IgG1) (monkey (cyno)); assay: ELISA, antigen with and without NHS-biotin label coated at 4 ug/mL
T2 construct: also called P38408

Mouse-RAGE-ECD-Fc(IgG1) = molecular target: T3, Mouse-RAGE-ECD-Fc(IgG1) (mouse); assay: as above
T3 construct: also called P38410

Human-RAGE-ECD-His = molecular target: T4, Human-RAGE-ECD-His (human, UniProt Q15109 23-342); assay: as above
T4 construct: also called P38405

Cyno-RAGE-ECD-His = molecular target: T5, Cyno-RAGE-ECD-His (monkey (cyno), UniProt Q15109 23-342 (human entry)); assay: as above
T5 construct: also called P38407
T5 chain: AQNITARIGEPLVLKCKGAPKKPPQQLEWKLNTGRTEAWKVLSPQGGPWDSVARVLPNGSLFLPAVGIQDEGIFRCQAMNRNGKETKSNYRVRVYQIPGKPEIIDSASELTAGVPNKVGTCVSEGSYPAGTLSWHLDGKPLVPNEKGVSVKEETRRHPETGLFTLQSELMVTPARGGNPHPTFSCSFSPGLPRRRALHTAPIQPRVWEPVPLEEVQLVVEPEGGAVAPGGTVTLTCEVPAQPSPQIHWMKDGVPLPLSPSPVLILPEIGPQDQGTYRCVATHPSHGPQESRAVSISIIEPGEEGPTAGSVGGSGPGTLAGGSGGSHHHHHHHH

Mouse-RAGE-ECD-His = molecular target: T6, Mouse-RAGE-ECD-His (mouse, UniProt Q62151 23-340); assay: as above
T6 construct: also called P38409

[1] = molecular target: T7, RAGE(1-404)-3xflag-eBFP (plasmid p605) on HepG2 cells; assay: flow cytometry on fixed p605-HepG2 cells, 1 ug and 5 ug in 100 uL, FITC anti-HA detection
T7 construct: also called p605-HepG2 cells; p605 cells
Protocol: (5) 1 μg and 5 μg of antiRAGE(A90)-Fc were respectively added to 100 μL of the incubation system to incubate at 4° C. for 2 h. The cells were washed and resuspended with 0.5% BSA diluted in PBS.
(6) 1 μL of FITC-conjugated antiHA antibody was respectively added to cells without A90-Fc antibody and cells incubated with A90-Fc antibody to incubate at room temperature for 1 h. The cells were washed twice with PBS, and then resuspended with PBS.

[2] = molecular target: T8, RAGE(1-404)-3xflag-mCherry (plasmid p318) on 293F cells (human); assay: flow cytometry on fixed p318-293F cells, 5 ug scFv in 100 uL, FITC anti-HA detection
T8 construct: also called p318 cells

T6 sequence (Q62151 other isoform, or with tags, fused parts or gaps): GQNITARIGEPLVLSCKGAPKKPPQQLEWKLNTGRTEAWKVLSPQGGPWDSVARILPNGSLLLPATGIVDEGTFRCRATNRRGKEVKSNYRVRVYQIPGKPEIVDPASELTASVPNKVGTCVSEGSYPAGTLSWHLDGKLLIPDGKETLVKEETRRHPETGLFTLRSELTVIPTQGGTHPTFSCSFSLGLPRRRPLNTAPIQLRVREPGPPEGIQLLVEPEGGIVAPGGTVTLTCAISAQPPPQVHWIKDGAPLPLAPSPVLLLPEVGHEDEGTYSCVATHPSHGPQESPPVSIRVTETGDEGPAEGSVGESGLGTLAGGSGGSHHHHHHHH
T3 sequence (chain, as listed by the source limits assumed): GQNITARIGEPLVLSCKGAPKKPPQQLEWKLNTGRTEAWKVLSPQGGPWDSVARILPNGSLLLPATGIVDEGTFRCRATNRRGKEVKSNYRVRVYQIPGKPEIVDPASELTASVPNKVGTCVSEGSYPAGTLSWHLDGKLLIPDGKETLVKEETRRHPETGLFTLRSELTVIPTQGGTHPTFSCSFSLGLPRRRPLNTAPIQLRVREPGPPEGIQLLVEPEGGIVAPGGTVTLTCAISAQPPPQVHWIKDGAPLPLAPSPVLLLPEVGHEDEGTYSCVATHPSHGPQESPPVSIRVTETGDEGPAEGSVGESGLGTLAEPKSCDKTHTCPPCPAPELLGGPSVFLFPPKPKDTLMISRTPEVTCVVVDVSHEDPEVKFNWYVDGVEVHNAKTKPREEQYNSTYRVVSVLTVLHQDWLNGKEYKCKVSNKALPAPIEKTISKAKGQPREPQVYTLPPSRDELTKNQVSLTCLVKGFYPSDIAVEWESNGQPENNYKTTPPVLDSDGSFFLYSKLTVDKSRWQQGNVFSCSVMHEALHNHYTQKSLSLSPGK

- binding result (Human-RAGE-ECD-Fc(IgG1)): binds
- binding result (Cyno-RAGE-ECD-Fc(IgG1)): binds
- binding result (Mouse-RAGE-ECD-Fc(IgG1)): binds
- binding result (Human-RAGE-ECD-His): binds
- binding result (Cyno-RAGE-ECD-His): binds
- binding result (Mouse-RAGE-ECD-His): binds
B1: h11E6.16 (antibody, human IgG1, kappa, V domains shown)
VH: EIQLVQSGAEVKKPGASVKVSCKASGYTFTNFGMNWVRQAPGQGLEWMGYINTNTGESIYSEEFKGRFTFTLDTSTSTAYMELSSLRSEDTAVYFCARSRMVTAYGMDYWGQGTSVTVSS
VL: EIVMTQSPATLSLSPGERATLSCKASQNVGTAVAWYQQKPGQSPRLLIFSASNRYTGVPARFSGSGSGTDFTLTISSLQSEDFAVYFCQQYSSYPLTFGQGTKLEIKR
notes: also called h11E6.16 antibody (P38411); P38411

- binding result [1]: binds
B2: antiRAGE(A90)-Fc (antibody, human IgG1, kappa)
heavy: not shown
light: NIQLTQSPSTLSASVGDRVTITCRASQSISSWLAWYQQKPGKAPKLLIYQASSLESGVPSRFSGSGSGTEFTLTIRSLQPEDFAVYFCQQYKDYPLTFGGGTKVDIKRTVAAPSVFIFPPSDEQLKSGTASVVCLLNNFYPREAKVQWKVDNALQSGNSQESVTEQDSKDSTYSLSSTLTLSKADYEKHKVYACEVTHQGLSSPVTKSFNRGEC
notes: also called antiRAGE(A90)-Fc-G4S-HA; antiRAGE-Fc-G4S-HA-ALFA

- binding result [2]: binds
B3: 6xHis-antiRAGE(A90)-scFv-G4S-HA (scFv)
scFv: HHHHHHQVQLVQSGAEVKKPGSSVKVSCKASGGTFNNYAINWARQAPGQGLEWMGRIVPFFDVTNYAQKFQGRVTITADKSTSTAYMELSSLRSEDTAIYYCAIGSFNWNSGAFDIWGQGTPVTVSSGGGGSGGGGSGGGGSNIQLTQSPSTLSASVGDRVTITCRASQSISSWLAWYQQKPGKAPKLLIYQASSLESGVPSRFSGSGSGTEFTLTIRSLQPEDFAVYFCQQYKDYPLTFGGGTKVDIKGGGGSYPYDVPDYA
notes: also called antiRAGE scFv antibody; antiRAGE-scFv
